# Source: the supplement of paper PMC11246515
# ± gives the standard deviation of the averaged measurements.
# Assay: total protein half-life in vivo (active degradation + dilution); higher = more stable protein
# [1] = E. coli NCM3722 delta-clpP, growth: N-lim chemostat, doubling time 6 h
# [2] = E. coli NCM3722 delta-hslV, growth: N-lim chemostat, doubling time 6 h
# [3] = E. coli NCM3722 delta-lon, growth: N-lim chemostat, doubling time 6 h
# [4] = E. coli NCM3722 delta-smpB, growth: N-lim chemostat, doubling time 6 h
# [5] = wild type E. coli NCM3722, growth: C-lim chemostat, doubling time 3 h
# [6] = wild type E. coli NCM3722, growth: C-lim chemostat, doubling time 6 h
# [7] = wild type E. coli NCM3722, growth: C-lim chemostat, doubling time 12 h
# [8] = wild type E. coli NCM3722, growth: N-lim chemostat, doubling time 6 h
# [9] = wild type E. coli NCM3722, growth: N-lim chemostat, doubling time 12 h
# [10] = wild type E. coli NCM3722, growth: P-lim chemostat, doubling time 6 h
# [11] = wild type E. coli NCM3722, growth: P-lim chemostat, doubling time 12 h
# [12] = E. coli NCM3722 delta-clpP delta-lon delta-hslV, growth: N-lim chemostat, doubling time 6 h
Sequence,total protein half-life in vivo [1] [h],total protein half-life in vivo [2] [h],total protein half-life in vivo [3] [h],total protein half-life in vivo [4] [h],total protein half-life in vivo [5] [h],total protein half-life in vivo [6] [h],total protein half-life in vivo [7] [h],total protein half-life in vivo [8] [h],total protein half-life in vivo [9] [h],total protein half-life in vivo [10] [h],total protein half-life in vivo [11] [h],total protein half-life in vivo [12] [h]
MNNHFKCIGIVGHPRHPTALTTHEMLYRWLCTKGYEVIVEQQIAHELQLKNVKTGTLAEIGQLADLAVVVGGDGNMLGAARTLARYDIKVIGINRGNLGFLTDLDPDNAQQQLADVLEGHYISEKRFLLEAQVCQQDCQKRISTAINEVVLHPGKVAHMIEFEVYIDEIFAFSQRSDGLIISTPTGSTAYSLSAGGPILTPSLDAITLVPMFPHTLSARPLVINSSSTIRLRFSHRRNDLEISCDSQIALPIQEGEDVLIRRCDYHLNLIHPKDYSYFNTLSTKLGWSKKLF [P0A7B3],4.25 ± 0.11,5.35 ± 1.2,6.6 ± 1.1,4.75 ± 0.69,3.19 ± 0.49,5.33 ± 0.2,12.1,4.4 ± 0.37,7.59,5.9 ± 0.21,11.1 ± 0.2,–
MNNMNVIIADDHPIVLFGIRKSLEQIEWVNVVGEFEDSTALINNLPKLDAHVLITDLSMPGDKYGDGITLIKYIKRHFPSLSIIVLTMNNNPAILSAVLDLDIEGIVLKQGAPTDLPKALAALQKGKKFTPESVSRLLEKISAGGYGDKRLSPKESEVLRLFAEGFLVTEIAKKLNRSIKTISSQKKSAMMKLGVENDIALLNYLSSVTLSPADKD [P0DMC7],4.22 ± 1.2,2.69 ± 0.2,3.758 ± 0.014,2.9 ± 0.3,2.71 ± 0.096,4.35 ± 0.097,6.66 ± 1.3,3.01 ± 0.38,4.16 ± 0.46,3.42 ± 0.59,5.56 ± 0.093,5.91 ± 1.9
MNNNDLFQASRRRFLAQLGGLTVAGMLGPSLLTPRRATAAQAATDAVISKEGILTGSHWGAIRATVKDGRFVAAKPFELDKYPSKMIAGLPDHVHNAARIRYPMVRVDWLRKRHLSDTSQRGDNRFVRVSWDEALDMFYEELERVQKTHGPSALLTASGWQSTGMFHNASGMLAKAIALHGNSVGTGGDYSTGAAQVILPRVVGSMEVYEQQTSWPLVLQNSKTIVLWGSDLLKNQQANWWCPDHDVYEYYAQLKAKVAAGEIEVISIDPVVTSTHEYLGREHVKHIAVNPQTDVPLQLALAHTLYSENLYDKNFLANYCVGFEQFLPYLLGEKDGQPKDAAWAEKLTGIDAETIRGLARQMAANRTQIIAGWCVQRMQHGEQWAWMIVVLAAMLGQIGLPGGGFGFGWHYNGAGTPGRKGVILSGFSGSTSIPPVHDNSDYKGYSSTIPIARFIDAILEPGKVINWNGKSVKLPPLKMCIFAGTNPFHRHQQINRIIEGLRKLETVIAIDNQWTSTCRFADIVLPATTQFERNDLDQYGNHSNRGIIAMKQVVPPQFEARNDFDIFRELCRRFNREEAFTEGLDEMGWLKRIWQEGVQQGKGRGVHLPAFDDFWNNKEYVEFDHPQMFVRHQAFREDPDLEPLGTPSGLIEIYSKTIADMNYDDCQGHPMWFEKIERSHGGPGSQKYPLHLQSVHPDFRLHSQLCESETLRQQYTVAGKEPVFINPQDASARGIRNGDVVRVFNARGQVLAGAVVSDRYAPGVARIHEGAWYDPDKGGEPGALCKYGNPNVLTIDIGTSQLAQATSAHTTLVEIEKYNGTVEQVTAFNGPVEMVAQCEYVPASQVKS,–,–,7.84,5.54,3.3 ± 0.074,4.64 ± 2.7,13.2 ± 1.9,7.02 ± 0.15,14 ± 1.4,6.85 ± 0.67,12.6 ± 0.63,–
MNNNDLVAKLWKLCDNLRDGGVSYQNYVNELASLLFLKMCKETGQEAEYLPEGYRWDDLKSRIGQEQLQFYRKMLVHLGEDDKKLVQAVFHNVSTTITEPKQITALVSNMDSLDWYNGAHGKSRDDFGDMYEGLLQKNANETKSGAGQYFTPRPLIKTIIHLLKPQPREVVQDPAAGTAGFLIEADRYVKSQTNDLDDLDGDTQDFQIHRAFIGLELVPGTRRLALMNCLLHDIEGNLDHGGAIRLGNTLGSDGENLPKAHIVATNPPFGSAAGTNITRTFVHPTSNKQLCFMQHIIETLHPGGRAAVVVPDNVLFEGGKGTDIRRDLMDKCHLHTILRLPTGIFYAQGVKTNVLFFTKGTVANPNQDKNCTDDVWVYDLRTNMPSFGKRTPFTDEHLQPFERVYGEDPHGLSPRTEGEWSFNAEETEVADSEENKNTDQHLATSRWRKFSREWIRTAKSDSLDISWLKDKDSIDADSLPEPDVLAAEAMGELVQALSELDALMRELGASDEADLQRQLLEEAFGGVKE,4.9709 ± 0.0002,4.85 ± 0.48,4.72 ± 0.37,4.17 ± 0.28,2.586 ± 0.0099,5.252 ± 0.027,9.58 ± 1,4.476 ± 0.014,7.36 ± 0.36,5.18 ± 0.24,10.5 ± 0.66,5.68 ± 0.29
MNNRVHQGHLARKRFGQNFLNDQFVIDSIVSAINPQKGQAMVEIGPGLAALTEPVGERLDQLTVIELDRDLAARLQTHPFLGPKLTIYQQDAMTFNFGELAEKMGQPLRVFGNLPYNISTPLMFHLFSYTDAIADMHFMLQKEVVNRLVAGPNSKAYGRLSVMAQYYCNVIPVLEVPPSAFTPPPKVDSAVVRLVPHATMPHPVKDVRVLSRITTEAFNQRRKTIRNSLGNLFSVEVLTGMGIDPAMRAENISVAQYCQMANYLAENAPLQES,5.39 ± 0.83,5.18 ± 0.36,5.84 ± 0.95,5.39 ± 0.63,2.972 ± 0.017,5.41 ± 0.75,12.5 ± 1.5,5.24 ± 0.29,9.91 ± 1.2,5.56 ± 0.3,10.6 ± 0.28,5.45 ± 0.071
